{
  "source": "patent US20210290727A1",
  "about": "(UNIVERSITY OF MARYLAND BALTIMORE, published 2021)",
  "binders": {"B1": {"name": "CIB2-eGFP (other)", "chain": "MGNKQTIFTEEQLDNYQDCTFFNKKDILKLHSRFYELAPNLVPMDYRKSPIVHVPMSLIIQMPELRENPFKERIVAAFSEDGEGNLTFNDFVDMFSVLCESAPRELKANYAFKIYDFNTDNFICKEDLELTLARLTKSELDEEEVVLVCDKVIEEADLDGDGKLGFADFEDMIAKAPDFLSTFHIRI", "notes": "Expressed in COS-7 cells as bait of the NanoSPD (nanoTRAP) assay; also called hCIB2-eGFP; GFP-hCIB2; not shown: eGFP tag"}},
  "key": {"FLAG-tagged TSC1": {"biological_target": "T1, FLAG-tagged TSC1 (UniProt Q92574 1-1164)", "T1 construct": "also called pRK7-FLAG-TSC1; not shown: FLAG tag", "T1 sequence (looked up)": "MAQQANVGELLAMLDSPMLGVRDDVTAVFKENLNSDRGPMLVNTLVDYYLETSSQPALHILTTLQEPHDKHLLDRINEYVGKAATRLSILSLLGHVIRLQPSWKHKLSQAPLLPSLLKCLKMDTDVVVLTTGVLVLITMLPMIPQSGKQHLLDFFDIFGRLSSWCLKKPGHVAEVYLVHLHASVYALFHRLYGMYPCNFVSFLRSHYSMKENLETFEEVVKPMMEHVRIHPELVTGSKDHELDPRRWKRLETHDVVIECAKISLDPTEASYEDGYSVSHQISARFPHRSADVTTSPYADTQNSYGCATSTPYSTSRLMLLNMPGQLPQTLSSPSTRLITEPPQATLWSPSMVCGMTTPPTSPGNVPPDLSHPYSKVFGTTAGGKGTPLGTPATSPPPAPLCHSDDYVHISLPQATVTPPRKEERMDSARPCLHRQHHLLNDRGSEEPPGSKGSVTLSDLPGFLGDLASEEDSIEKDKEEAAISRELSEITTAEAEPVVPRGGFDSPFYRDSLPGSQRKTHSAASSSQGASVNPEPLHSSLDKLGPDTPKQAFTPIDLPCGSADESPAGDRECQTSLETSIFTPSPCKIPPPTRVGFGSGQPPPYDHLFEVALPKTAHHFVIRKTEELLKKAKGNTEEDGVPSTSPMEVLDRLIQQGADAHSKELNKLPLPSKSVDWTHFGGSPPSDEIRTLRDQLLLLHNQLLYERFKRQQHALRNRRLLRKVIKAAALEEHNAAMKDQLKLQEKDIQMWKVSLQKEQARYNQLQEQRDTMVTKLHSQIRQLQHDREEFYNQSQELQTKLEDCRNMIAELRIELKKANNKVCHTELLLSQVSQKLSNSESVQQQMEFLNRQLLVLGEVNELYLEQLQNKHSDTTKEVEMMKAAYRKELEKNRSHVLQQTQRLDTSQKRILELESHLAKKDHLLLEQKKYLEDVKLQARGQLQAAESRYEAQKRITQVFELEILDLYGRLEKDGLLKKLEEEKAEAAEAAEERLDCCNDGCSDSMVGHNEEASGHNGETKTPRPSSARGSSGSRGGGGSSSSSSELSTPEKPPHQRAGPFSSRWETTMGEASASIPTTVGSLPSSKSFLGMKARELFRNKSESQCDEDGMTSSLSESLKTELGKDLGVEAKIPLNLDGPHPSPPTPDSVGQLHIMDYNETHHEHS", "assay": "NanoSPD (nanoTRAP) filopodia co-accumulation in COS-7 cells"}, "FLAG-tagged TSC2": {"biological_target": "T2, FLAG-tagged TSC2 (UniProt P49815 1-1807, limits assumed)", "T2 construct": "also called pRK7-FLAG-TSC2; not shown: FLAG tag", "T2 sequence (P49815 whole entry)": "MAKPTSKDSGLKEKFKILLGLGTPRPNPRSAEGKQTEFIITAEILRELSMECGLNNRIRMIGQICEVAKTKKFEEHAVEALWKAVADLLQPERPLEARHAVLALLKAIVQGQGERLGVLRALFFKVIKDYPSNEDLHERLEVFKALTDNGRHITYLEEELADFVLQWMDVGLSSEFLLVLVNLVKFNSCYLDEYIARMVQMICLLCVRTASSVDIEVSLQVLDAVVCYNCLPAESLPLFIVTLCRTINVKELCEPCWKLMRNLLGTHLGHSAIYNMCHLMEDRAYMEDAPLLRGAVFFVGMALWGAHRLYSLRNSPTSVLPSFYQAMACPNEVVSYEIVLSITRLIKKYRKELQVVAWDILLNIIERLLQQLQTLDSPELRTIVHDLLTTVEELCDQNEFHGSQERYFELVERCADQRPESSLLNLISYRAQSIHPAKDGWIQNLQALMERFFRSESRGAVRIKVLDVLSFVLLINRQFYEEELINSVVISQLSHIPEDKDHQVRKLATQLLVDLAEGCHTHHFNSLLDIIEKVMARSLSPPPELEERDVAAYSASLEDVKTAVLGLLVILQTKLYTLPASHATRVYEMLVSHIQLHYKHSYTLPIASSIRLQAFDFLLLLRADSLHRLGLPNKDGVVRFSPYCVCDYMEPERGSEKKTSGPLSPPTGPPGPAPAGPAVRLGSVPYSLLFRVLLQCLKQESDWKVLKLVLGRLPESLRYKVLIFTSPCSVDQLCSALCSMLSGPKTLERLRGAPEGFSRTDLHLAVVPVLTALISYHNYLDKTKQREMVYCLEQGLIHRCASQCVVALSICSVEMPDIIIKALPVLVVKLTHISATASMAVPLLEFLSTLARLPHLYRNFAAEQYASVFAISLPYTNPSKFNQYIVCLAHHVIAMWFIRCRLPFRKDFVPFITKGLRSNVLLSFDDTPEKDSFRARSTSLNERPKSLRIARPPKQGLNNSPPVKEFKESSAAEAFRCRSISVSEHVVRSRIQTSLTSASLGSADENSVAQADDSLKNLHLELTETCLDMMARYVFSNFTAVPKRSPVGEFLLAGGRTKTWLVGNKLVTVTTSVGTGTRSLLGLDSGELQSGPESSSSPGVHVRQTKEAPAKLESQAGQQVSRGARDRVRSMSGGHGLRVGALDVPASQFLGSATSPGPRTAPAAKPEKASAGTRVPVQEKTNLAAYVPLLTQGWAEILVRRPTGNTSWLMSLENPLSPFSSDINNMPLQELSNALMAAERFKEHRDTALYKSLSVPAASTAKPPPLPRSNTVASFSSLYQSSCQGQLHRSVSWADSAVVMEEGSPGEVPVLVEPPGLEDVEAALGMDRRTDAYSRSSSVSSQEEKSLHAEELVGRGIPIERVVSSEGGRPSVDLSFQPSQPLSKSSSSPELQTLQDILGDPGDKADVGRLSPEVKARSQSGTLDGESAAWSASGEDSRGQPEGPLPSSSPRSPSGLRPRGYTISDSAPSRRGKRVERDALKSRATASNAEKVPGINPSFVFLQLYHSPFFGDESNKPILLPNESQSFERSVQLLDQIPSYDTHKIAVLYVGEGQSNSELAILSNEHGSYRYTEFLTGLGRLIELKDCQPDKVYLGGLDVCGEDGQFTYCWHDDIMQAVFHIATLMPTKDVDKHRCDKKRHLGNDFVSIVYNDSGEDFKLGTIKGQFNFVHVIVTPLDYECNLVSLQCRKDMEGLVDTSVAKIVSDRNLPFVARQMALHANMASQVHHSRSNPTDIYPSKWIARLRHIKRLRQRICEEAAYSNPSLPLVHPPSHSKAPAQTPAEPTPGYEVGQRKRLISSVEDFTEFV", "assay": "NanoSPD (nanoTRAP) filopodia co-accumulation in COS-7 cells"}},
  "data": [
    {"binder": "B1", "values": [
      {"measurement": "binding result", "setting": "FLAG-tagged TSC1", "value": "no binding"},
      {"measurement": "binding result", "setting": "FLAG-tagged TSC2", "value": "no binding"}
    ]}
  ]
}
